Experimental data: IntAct's records for PubMed 25170080

B1: Protein Nef (Human immunodeficiency virus type 1 group M subtype B (isolate HXB2) (HIV-1)), P04601 (parent)
chain: MGGKWSKSSVIGWPTVRERMRRAEPAADRVGAASRDLEKHGAITSSNTAATNAACAWLEAQEEEEVGFPVTPQVPLRPMTYKAAVDLSHFLKEKGGLEGLIHSQRRQDILDLWIYHTQGYFPDWQNYTPGPGVRYPLTFGWCYKLVPVEPDKIEEANKGENTSLLHPVSLHGMDDPEREVLEWRFDSRLAFHHVARELHPEYFKNC
partner: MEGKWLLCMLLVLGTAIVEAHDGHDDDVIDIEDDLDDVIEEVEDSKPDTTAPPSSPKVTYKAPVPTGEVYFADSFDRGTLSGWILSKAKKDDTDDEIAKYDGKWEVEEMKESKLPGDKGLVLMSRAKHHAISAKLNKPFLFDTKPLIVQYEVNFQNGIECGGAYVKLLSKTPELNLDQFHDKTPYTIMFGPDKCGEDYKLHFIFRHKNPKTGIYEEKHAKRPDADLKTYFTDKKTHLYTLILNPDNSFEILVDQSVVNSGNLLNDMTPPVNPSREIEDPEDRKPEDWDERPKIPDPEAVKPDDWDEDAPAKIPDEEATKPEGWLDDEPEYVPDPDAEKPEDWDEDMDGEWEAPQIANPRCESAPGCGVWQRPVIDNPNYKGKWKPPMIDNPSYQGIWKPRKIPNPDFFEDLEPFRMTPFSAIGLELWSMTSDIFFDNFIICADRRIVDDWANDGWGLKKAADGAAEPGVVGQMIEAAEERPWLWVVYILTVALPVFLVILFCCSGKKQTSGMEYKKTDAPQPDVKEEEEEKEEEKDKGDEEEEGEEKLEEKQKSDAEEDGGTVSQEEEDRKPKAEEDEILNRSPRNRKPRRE

Variants of: B1
Settings: with calx_human CANX
With G2A the “effect of a mutation on the interaction” value was “disrupting interaction strength”.
